Laboratory results from the supplement of paper PMC10567573.
± gives the standard deviation.

Assay: protein stability index of a GFP-peptide fusion (GPS, HEK-293T) (PSI 1-6); higher = more stable
Details: c terminus: a fixed tail appended
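Note: 24-mer peptide tiles fused after GFP, lentivirally expressed, FACS-sorted into six equal bins by GFP/DsRed ratio, decoded by Illumina sequencing, PSI is the read-weighted mean bin number.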

Row | Sequence | protein stability index (treatment: DMSO) | protein stability index (treatment: MLN4924 1 uM, 8 h)
1 | QLDSRYWRITNAKGDVEEVQGPGV [FBXO3] | 4.14 ± 0.22 | 4.22 ± 0.14
2 | ESPSTLQVLPDSESLPRSEIDEKV [MAGEA10] | 5.62 ± 0.19 | 5.63 ± 0.3
3 | LLTLPRPPLSGALASITETIQVHR [HDAC6] | 3.12 ± 0.13 | 3.22 ± 0.28
4 | EELQNKILTATVDNANILLQIDNA [KRT17] | 4.03 ± 0.095 | 4.3 ± 0.053
5 | VFSFGKHYWELDVDNSCDWALGVC [TRIM43] | 2.54 ± 0.085 | 2.54 ± 0.39
6 | AGGEENMTETDAFYKREMFDPAEK [CASP6] | 5.13 ± 0.32 | 5.37 ± 0.3
7 | VIFALCWFPLHLSRILKKTVYNEM [EDNRA] | 3 ± 0.64 | 2.92 ± 0.68
8 | CRQRLIFEQTPALTKHEWTEALGC [ZNF8] | 2.38 ± 0.2 | 2.42 ± 0.26
9 | LYVRRVFIMDSCDELIPEYLNFIR [HSP90AB1] | 2.37 ± 0.58 | 2.68 ± 0.86
10 | RVKFRRQEANARERNRMHGLNDAL [NEUROD6] | 3.37 ± 0.18 | 3.43 ± 0.34
11 | PEFELLWKDIIHNPQALSPQFTGI [INTS3] | 2.16 ± 0.15 | 2.21 ± 0.32
12 | QEVFEPPHYELCTLRGTGATADFA [NETO1] | 3.91 ± 0.28 | 3.88 ± 0.26
13 | ELVPHPETAPTTVDRTHALMKKIG [CRYL1] | 4.31 ± 0.23 | 4.48 ± 0.35
14 | MDVMPGEGDLPQMEVGSGSRELSL [EID1] | 4.8 ± 0.2 | 5.06 ± 0.17
15 | VQKNILAAASPYIRTKLNYNPPKD [GAN] | 2.97 ± 0.34 | 3.24 ± 0.38
16 | MTAPAGPRGSETERLLTPNPGYGT [MCOLN1] | 4.23 ± 0.22 | 4.2 ± 0.42
17 | DQEMARDLVERALYSMECAFHPLF [TCF25] | 2.35 ± 0.34 | 2.09 ± 0.35
18 | AIKEMIENCLDAKSTSIQVIVKEG [MLH1] | 2.79 ± 0.19 | 2.74 ± 0.22
19 | SWARQESLQERKQALYEYARRRFT [AUP1] | 3.8 ± 0.17 | 3.81 ± 0.12
20 | SYKDLDVIFGVELPGNEEFQVVKD [TENT5D] | 3.84 ± 0.24 | 3.88 ± 0.099
21 | LISGVTLDNCVEVGRIANTYNLTE [KLHL13] | 2.89 ± 0.18 | 2.77 ± 0.15
22 | TFQSHEPEFDYLKSLEIEEKINKI [PPP2R2C] | 4.74 ± 0.17 | 4.81 ± 0.31
23 | EESFRQMVVIHKEIPTGKKDHECS [ZNF232] | 4.84 ± 0.31 | 4.77 ± 0.11

Row | Sequence | protein stability index (treatment: DMSO) | protein stability index (treatment: MLN4924 1 uM, 8 h)
24 | NKQAYDLAKALLKRTAQAIEPYIT [PDS5B] | 2.54 ± 0.46 | 2.63 ± 0.37
25 | YIKVDWQRVEKDMKKAKEQLKIRK [FUNDC2] | 2.46 ± 0.61 | 2.94 ± 0.74
26 | FGGGCDLTPTYLNQEDAIHFHRTL [CPOX] | 2.62 ± 0.4 | 2.81 ± 0.3
27 | QVEIFSTNPDLYPVRRIDGLTDVS [IQUB] | 3.71 ± 0.29 | 3.68 ± 0.27
28 | DPHSGHFVALKSVRVPNGGGGGGG [CDK4] | 4.01 ± 0.12 | 3.87 ± 0.33
29 | AELVLLTLGQAWQGYVSDIRRFLS [DFFB] | 2.12 ± 0.17 | 2.06 ± 0.21
30 | DSPENMMRHIRFLKNEVERLKKQL [CCDC6] | 4.18 ± 0.31 | 4.45 ± 0.35
31 | LDAEDRPAWNSKLQYILAQIGFSV [SLC6A17] | 2.19 ± 0.53 | 2.32 ± 0.21
32 | KLGWGHFSTVWLCWDMQGKRFVAM [SRPK2] | 2.9 ± 0.87 | 2.64 ± 1.2
33 | PGPAPGSPGELEEDLLLPGACPGA [WEE1] | 5.24 ± 0.52 | 5.49 ± 0.13
34 | AQVPDTRWSRVGGQRFYSRVLSPL | 2.41 ± 0.69 | 2.75 ± 0.43
35 | VLRAEHRGFQEENKALWENNKLKL [CBY2] | 3.83 ± 0.45 | 3.89 ± 0.28
36 | TATREEASTSLPTKPTQGASSASE [CLPTM1] | 5.47 ± 0.34 | 5.4 ± 0.46
37 | DQKVIELVKKYGTKQWTLIAKHLK [MYBL2] | 2.77 ± 0.91 | 3.12 ± 0.49
38 | TYHVGKQCFFNGVFLGNKRSLSER [SPATS1] | 2.36 ± 0.21 | 2.59 ± 0.22
39 | THTQIDQQPPRLLIVHIALPSWAD [M1AP] | 2.75 ± 0.59 | 2.68 ± 0.54
40 | GLLQLDHRGLRCSWEGLAVLDSLL [RSAD1] | 2.31 ± 0.56 | 2.06 ± 0.31
41 | SEFLKRFVEATRKWKVGIPSDPLV [ALDH8A1] | 2.53 ± 0.85 | 2.05 ± 0.2
42 | ANAQIQILTRSWEEVSTLNAQIPE [CD207] | 3.52 ± 0.18 | 3.53 ± 0.2
43 | DSSLHWSSSYSPETFRQQFRQFGY [ZNF396] | 2.66 ± 0.31 | 2.56 ± 0.15
44 | ELCRDAAQFRLLSEVEELNMSLTA [TEKT4] | 2.85 ± 0.34 | 2.77 ± 0.28
45 | NVMTQSFGAVNLSSPSNMLPVRPQ [CLINT1] | 3.86 ± 0.2 | 3.99 ± 0.51
46 | KDPKAGDSKSGGSGSESDHTTRSS [DVL3] | 5.3 ± 0.38 | 5.53 ± 0.23

Row | Sequence | protein stability index (treatment: DMSO) | protein stability index (treatment: MLN4924 1 uM, 8 h)
47 | LRENVPRVIMIVTDGRPQDSVAEV [MATN2] | 3.088 ± 0.005 | 3.09 ± 0.17
48 | KEGARNIRTSERVTLIVDNTRFVV [BTBD10] | 1.95 ± 0.32 | 2.29 ± 0.34
49 | GYDHLWDETLSSSHQKCPQLGGPE [PLEKHN1] | 4.19 ± 0.3 | 4.31 ± 0.32
50 | APEYFEKNEPYLEAACNDVDRWPA [DENND6A] | 4.59 ± 0.29 | 4.47 ± 0.38
51 | FAQYDSFHVDSAAEYYRLHLEGYH [TNXB] | 2.43 ± 0.81 | 2.26 ± 0.23
52 | LGKILSVELGKQKKKYMPYNHQHK [FADS1] | 2.55 ± 0.12 | 2.69 ± 0.23
53 | FDLCDRTFSLKTVLMIAIQLISRM [CSNK1G3] | 2.89 ± 0.21 | 2.54 ± 0.46
54 | LGRSLTAVFMWPGKDSRWLPSLVL [SLC29A1] | 2.98 ± 0.22 | 2.83 ± 0.47
55 | NSDQTTCRIQDLCAMEDHNCEQLC [MATN2] | 4.04 ± 0.29 | 4.05 ± 0.23
56 | EKAMAEWVKQQAEREAEKEQKRLE [SDE2] | 5.5 ± 0.34 | 5.57 ± 0.18
57 | EREEITTKKRKLGKNPDVDTSFLP [FAM50A] | 4.63 ± 0.35 | 4.79 ± 0.24
58 | DEGGFTCFFRDHSYQEEAAMELKV [MOG] | 3.57 ± 0.26 | 3.7 ± 0.34
59 | NAIRVHHALATRASDYSKKSNVLK [PSD2] | 3.46 ± 0.31 | 3.5 ± 0.12
60 | LASGPGKYMPHLCQDSSGEVSCQC | 3.99 ± 0.12 | 4.1 ± 0.27
61 | PEAAVLFRQMATALAHCHQHGLVL [TRIB3] | 2.92 ± 0.55 | 2.88 ± 0.48
62 | GDPRPKIVWNKKGKKVSNQRFEVI [PTPRD] | 2.94 ± 0.24 | 3.46 ± 0.64
63 | TEHMKTHTGLKPYECGVCAKKFMW [ZBTB22] | 2.65 ± 0.26 | 2.77 ± 0.34
64 | DQIEDMFEQGKWDVFSENLLADVK [STX11] | 3.75 ± 0.14 | 3.76 ± 0.3
65 | FSLACSLMGPSRMSLFSLYMVQDQ [M1AP] | 3.19 ± 0.42 | 2.99 ± 0.32
66 | SSPRGMVRVCDLLLKKKPPQQQHH [ANKRD17] | 3.2 ± 0.23 | 3.28 ± 0.13
67 | SQSILPLEHGSIYIPSSYVDSHHE [ESR2] | 3.96 ± 0.19 | 3.95 ± 0.17
68 | AAPAVRASSSPVTLRQKTVDWRRV [SLA] | 3.2 ± 0.54 | 3.17 ± 0.72
69 | PSIYHTMASPCSAMAYHHDSRRIF [WDFY1] | 2.14 ± 0.72 | 2.18 ± 0.4

Row | Sequence | protein stability index (treatment: DMSO) | protein stability index (treatment: MLN4924 1 uM, 8 h)
70 | MEKYERIRVVGRGAFGIVHLCLRK [NEK8] | 2.09 ± 0.21 | 2.33 ± 0.27
71 | NDIPHSIPLEQGSSCNGPGQTTGH [FAN1] | 5.24 ± 0.18 | 5.23 ± 0.1
72 | MVEDDSRKEMTAACTPRRRIINLT [MLH1] | 3.95 ± 0.059 | 3.93 ± 0.29
73 | DQLIGQGIIVKDARLNGSVASYIL [TENT5D] | 2.3 ± 0.33 | 2.19 ± 0.45
74 | DKQKLKRTEIISRSWFPSAPGSAS [YJU2B] | 3.56 ± 0.21 | 3.71 ± 0.12
75 | ELPKPEVISQLEQGTELWVAERGT [ZNF8] | 4.76 ± 0.17 | 4.82 ± 0.66
76 | ERAKELYSSGEFSSGRKWGDDAPK [INTS4] | 4.77 ± 0.33 | 4.66 ± 0.14
77 | QALLKENRLLQEENRTLQVLRAEH [CBY2] | 4.02 ± 0.2 | 4.2 ± 0.065
78 | GIQQLLQAEKRAAEKVSEARKRKN [ATP6V1G1] | 4.12 ± 0.62 | 3.84 ± 0.74
79 | SEVTELRRVLQGLEIELQSQLSMK [KRT16] | 2.33 ± 0.2 | 2.33 ± 0.31
80 | DYLYTKQLSPNLDLDPLELIALAN [RHOBTB1] | 2.31 ± 0.28 | 2.3 ± 0.33
81 | TAEPFPRLHNLYSTPRCAQQAALP [CBY2] | 2.67 ± 0.2 | 2.66 ± 0.24
82 | MLNMWKVRELVDKATNVVMNYSEI [CLINT1] | 2.4 ± 0.17 | 2.23 ± 0.22
83 | QEDKALWEEEKALWVEERALLEGE [CCDC70] | 5.09 ± 0.3 | 5.17 ± 0.33
84 | EPVIKVAAIDNGLAFPLKHPDSWR [PI4K2A] | 3.41 ± 0.28 | 3.02 ± 0.23
85 | EFVNGWYILLVTSDVLTISGTIMK [MCOLN1] | 3.06 ± 0.26 | 3.08 ± 0.33
86 | SLNPDGYEKAYEGGSELGGWSLGR [CPXM2] | – | 4.29 ± 0.39
87 | RARIAKGLRLCRPKAKAKAKAKAK [RPL29] | 4.16 ± 0.48 | 4 ± 0.38
88 | RKRMKMDKTCSKTKNKSKHALRKK [FAM9B] | 4.23 ± 0.45 | 4.66 ± 0.3
89 | QLSPNKHFSLRVQSRANGVKYPEL [PCDHGA10] | 3 ± 0.18 | 3.02 ± 0.23
90 | INVPIRLECVKFASHCLMNHPDLA [PDS5B] | 2.28 ± 0.46 | 2.27 ± 0.17
